One may read the EC50 (read off the curve) as the concentration that produces a half-maximal response. As usually defined, the Kd is the concentration at which binding is half-saturated. As usually defined, the koff is the rate constant with which the complex falls apart. What is called kon is the second-order rate constant of association. Low values mean slower complex formation, high ones faster complex formation.

For assay [1], the target named is T1, VEGFR2-D5-7-AP fusion protein (UniProt P35968 421-764).
T1 construct: domain: domains 5-7; also called domains 5-7 of VEGFR2; not shown: alkaline phosphatase (AP) fusion partner
Briefly: ELISA: antibody captured with sheep anti-human Fd, VEGFR2-D5-7-AP added, pNPP, A405. (An ELISA detects its analyte on a solid surface through an enzyme-linked reagent.)

In another assay the target is T2, Mouse VEGFR2-Fc (mouse, UniProt P35918 20-762, limits assumed).
T2 construct: not shown: Fc
Description: ELISA, mouse VEGFR2-Fc coated, anti-human kappa-HRP, A450.

Assay [2] concerns the target T3, VEGFR2-AP (UniProt P35968 20-764).
T3 construct: also called AP-conjugated VEGFR2; AP-conjugated VEGFR; not shown: alkaline phosphatase (AP)
Briefly: ELISA, antibody captured with anti-Fd, VEGFR2-AP added (axis printed OD450).

For assay [3], the target named is T3, VEGFR2-AP. Briefly: ELISA, antibody captured with anti-Fc, VEGFR2-AP added (axis printed OD450).
The target of assay [4] is T3, VEGFR2-AP. Description: competition ELISA: antibody pre-incubated with VEGFR2-AP, mixture added to VEGF-coated wells, A405; blocked ligand: VEGF.
Description: Each antibody:antigen mixture was added to VEGF-coated wells of a microtiter dish. Following an incubation and wash, pNPP was added to the wells and incubated for 30 minutes. AP activity was measured by monitoring the increase in absorbance at 405 nm.
Another assay has as its target T4, VEGFR2 (UniProt P35968 20-764, limits assumed).
T4 construct: The SPR paragraphs name neither antigen construct nor format
Description: SPR; antigen construct and format not stated. Background: In SPR one partner is held on a chip, and binding of the other changes the refractive index at the surface.

In a further assay the target is T5, VEGFR2-Fc (UniProt P35968 20-764, limits assumed).
T5 construct: also called biotinylated VEGFR2-Fc; not shown: Fc
Description: ELISA, VEGFR2-Fc coated, anti-human kappa-HRP, OD450.

For assay [5], the target named is T6, human VEGFR3-Fc (R&D Systems) (human, UniProt P35916 25-776).
T6 construct: Bought; not shown: Fc
T6 sequence (looked up): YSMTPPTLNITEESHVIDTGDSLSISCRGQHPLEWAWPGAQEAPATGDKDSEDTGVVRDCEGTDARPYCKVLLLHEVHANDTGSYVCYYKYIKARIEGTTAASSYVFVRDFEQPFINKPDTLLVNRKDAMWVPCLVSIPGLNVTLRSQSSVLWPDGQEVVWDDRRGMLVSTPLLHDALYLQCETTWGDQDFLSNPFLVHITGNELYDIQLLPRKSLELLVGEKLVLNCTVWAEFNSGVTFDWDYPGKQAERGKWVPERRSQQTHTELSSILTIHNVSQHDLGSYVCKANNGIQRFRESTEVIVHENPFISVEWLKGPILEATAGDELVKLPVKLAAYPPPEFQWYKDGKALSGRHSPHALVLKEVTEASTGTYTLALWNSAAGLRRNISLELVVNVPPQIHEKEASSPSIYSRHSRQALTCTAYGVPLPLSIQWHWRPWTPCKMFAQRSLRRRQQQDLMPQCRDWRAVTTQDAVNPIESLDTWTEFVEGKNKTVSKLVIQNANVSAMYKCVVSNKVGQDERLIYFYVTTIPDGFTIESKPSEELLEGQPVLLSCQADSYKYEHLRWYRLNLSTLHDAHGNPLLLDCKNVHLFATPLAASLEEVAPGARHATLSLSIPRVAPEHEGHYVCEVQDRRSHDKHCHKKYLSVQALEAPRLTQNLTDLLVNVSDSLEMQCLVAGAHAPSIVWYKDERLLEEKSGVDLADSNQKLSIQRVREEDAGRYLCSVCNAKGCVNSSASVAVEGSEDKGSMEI
Description: ELISA, human VEGFR3-Fc coated, goat anti-human F(ab)'2-HRP, OD450.

In assay [6] the target is T7, recombinant human VEGFR1-Fc fusion protein (R&D Systems) (human, UniProt P17948-2 27-687, limits assumed).
T7 construct: Bought; not shown: Fc
Description: ELISA, human VEGFR1-Fc coated, goat anti-human F(ab)'2-HRP, OD450.

T3 sequence (P35968 20-764): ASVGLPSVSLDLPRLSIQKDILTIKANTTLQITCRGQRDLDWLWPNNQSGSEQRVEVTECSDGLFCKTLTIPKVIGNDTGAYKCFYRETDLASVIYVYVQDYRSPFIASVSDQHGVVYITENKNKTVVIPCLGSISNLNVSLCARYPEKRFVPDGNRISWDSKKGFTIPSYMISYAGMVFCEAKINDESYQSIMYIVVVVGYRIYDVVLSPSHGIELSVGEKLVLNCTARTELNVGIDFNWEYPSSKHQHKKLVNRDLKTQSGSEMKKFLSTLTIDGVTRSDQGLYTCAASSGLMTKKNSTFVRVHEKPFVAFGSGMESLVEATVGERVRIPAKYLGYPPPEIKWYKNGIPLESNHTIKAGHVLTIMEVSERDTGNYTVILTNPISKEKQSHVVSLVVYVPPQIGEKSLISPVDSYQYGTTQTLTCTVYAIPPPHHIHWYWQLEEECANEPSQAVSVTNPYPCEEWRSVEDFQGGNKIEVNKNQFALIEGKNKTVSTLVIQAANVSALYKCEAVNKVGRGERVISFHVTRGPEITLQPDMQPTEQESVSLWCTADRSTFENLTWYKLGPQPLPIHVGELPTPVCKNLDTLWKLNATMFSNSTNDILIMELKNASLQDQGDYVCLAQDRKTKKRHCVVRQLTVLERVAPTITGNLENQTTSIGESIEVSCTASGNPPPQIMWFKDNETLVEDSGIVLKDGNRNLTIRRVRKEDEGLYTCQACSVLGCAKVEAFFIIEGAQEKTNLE
T4 sequence (P35968 20-764 limits assumed): as the sequence (P35968 20-764) above
T2 sequence (P35918 20-762 limits assumed): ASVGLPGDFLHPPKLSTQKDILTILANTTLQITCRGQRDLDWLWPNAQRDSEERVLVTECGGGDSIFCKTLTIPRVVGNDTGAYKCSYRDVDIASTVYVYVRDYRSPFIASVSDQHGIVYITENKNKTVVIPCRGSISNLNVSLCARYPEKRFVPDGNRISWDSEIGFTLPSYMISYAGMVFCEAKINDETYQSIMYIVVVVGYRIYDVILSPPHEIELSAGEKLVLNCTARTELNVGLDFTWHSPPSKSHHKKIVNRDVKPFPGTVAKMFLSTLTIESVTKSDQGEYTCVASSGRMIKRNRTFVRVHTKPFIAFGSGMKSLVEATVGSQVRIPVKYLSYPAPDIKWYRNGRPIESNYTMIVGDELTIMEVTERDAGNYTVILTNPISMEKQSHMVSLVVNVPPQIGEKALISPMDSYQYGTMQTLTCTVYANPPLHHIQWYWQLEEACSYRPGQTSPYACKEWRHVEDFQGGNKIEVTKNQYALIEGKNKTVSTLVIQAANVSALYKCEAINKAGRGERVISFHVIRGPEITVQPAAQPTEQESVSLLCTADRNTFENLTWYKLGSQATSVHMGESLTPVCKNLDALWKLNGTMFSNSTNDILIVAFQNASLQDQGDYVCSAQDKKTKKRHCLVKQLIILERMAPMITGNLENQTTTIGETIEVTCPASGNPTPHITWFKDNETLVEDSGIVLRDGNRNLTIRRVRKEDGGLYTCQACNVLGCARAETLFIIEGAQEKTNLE
T7 sequence (P17948 other isoform, or with tags, fused parts or gaps limits assumed): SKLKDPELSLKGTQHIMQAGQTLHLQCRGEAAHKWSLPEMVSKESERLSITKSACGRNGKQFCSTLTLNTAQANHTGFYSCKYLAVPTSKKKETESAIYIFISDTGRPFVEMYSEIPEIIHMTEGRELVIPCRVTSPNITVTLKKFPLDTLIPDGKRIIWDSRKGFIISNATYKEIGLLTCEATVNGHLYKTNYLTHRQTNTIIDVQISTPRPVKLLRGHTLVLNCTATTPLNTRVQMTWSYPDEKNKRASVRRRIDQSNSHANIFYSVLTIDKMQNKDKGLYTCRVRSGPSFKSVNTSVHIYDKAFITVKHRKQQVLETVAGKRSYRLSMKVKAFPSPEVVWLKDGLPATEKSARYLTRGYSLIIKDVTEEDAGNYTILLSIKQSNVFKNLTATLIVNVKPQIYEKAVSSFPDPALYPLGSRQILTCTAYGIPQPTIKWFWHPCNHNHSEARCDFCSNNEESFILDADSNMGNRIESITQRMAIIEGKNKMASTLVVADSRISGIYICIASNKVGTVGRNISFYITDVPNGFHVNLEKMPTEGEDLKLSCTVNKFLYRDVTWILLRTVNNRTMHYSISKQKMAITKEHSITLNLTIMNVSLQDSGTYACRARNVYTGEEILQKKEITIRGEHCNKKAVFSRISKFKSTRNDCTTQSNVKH
T5 sequence (P35968 20-764 limits assumed): as the sequence (P35968 20-764) above
T1 sequence (P35968 421-764): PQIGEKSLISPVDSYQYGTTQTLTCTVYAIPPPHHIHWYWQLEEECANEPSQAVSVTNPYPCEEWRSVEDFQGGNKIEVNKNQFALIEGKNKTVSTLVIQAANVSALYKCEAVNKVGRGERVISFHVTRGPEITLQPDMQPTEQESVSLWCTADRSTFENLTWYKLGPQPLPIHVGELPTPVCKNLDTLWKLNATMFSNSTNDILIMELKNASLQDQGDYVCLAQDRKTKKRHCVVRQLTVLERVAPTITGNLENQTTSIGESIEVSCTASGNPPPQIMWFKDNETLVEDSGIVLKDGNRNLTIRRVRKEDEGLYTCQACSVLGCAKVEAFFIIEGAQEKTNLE
Description for Mouse VEGFR2-Fc: Mouse VEGFR2-Fc was used as the capture reagent, and the amount of captured antibody in each well was quantified using an anti-Human Kappa-HRP-conjugated secondary antibody. The HRP-conjugated secondary antibody was added to the wells, and, following an incubation, excess secondary antibody was washed away. TMB was added to the wells, and following incubation, the reaction was stopped, and HRP activity was measured by monitoring the increase in absorbance at 450 nm.

B1: 1121B (antibody, V domains shown)
VH: EVQLVQSGGGLVKPGGSLRLSCAASGFTFSSYSMNWVRQAPGKGLEWVSSISSSSSYIYYADSVKGRFTISRDNAKNSLYLQMNSLRAEDTAVYYCARVTDAFDIWGQGTMVTVSS
VL: EIVMTQSPATLSLSPGERATLSCRASQSVSSYLAWYQQKPGQAPRLLIYDSSNRATGIPARFSGSGSGTDFTLTISSLEPEDFATYYCLQHNTFPPTFGQGTKVEIKR
notes: Anti-VEGFR2 antibody of US 2009/0306348, positive control; The entries are called variable domains but run into the start of the constant domains
Consider B1, for which the binding result in assay [1] is “no binding (tested: 3 µg/mL)”; with Mouse VEGFR2-Fc it was “no binding (tested: 500 µg/mL)”. Further, the entries for the “EC50 (read off the curve)” value in the assay with VEGFR2-AP [2], in the assay with VEGFR2-AP [3] and in the assay with VEGFR2-Fc were roughly 0.6 mg/L, roughly 0.3 mg/L and roughly 0.5 mg/L, respectively. The “IC50 (read off the curve)” value with VEGFR2-AP [4] is roughly 0.05 mg/L. Moreover, the Kd with VEGFR2 was 1.28 nM. This molecule displayed a koff with VEGFR2 of 0.000962 s⁻¹. The same molecule showed an on-rate (kon) with VEGFR2 of 752000 M⁻¹ s⁻¹.

B2: 1121N (antibody, V domains shown)
VH: B1 VH
VL: DIQMTQSPSSVSASIGDRVTITCRASQGIDNWLGWYQQKPGKAPKLLIYDASNLDTGVPSRFSGSGSGTYFTLTISSLQAEDFAVYFCQQAKAFPPTFGGGTKVDIKG
notes: Anti-VEGFR2 antibody of U.S. Pat. No. 7,498,414, positive control; Entries run into the start of the constant domains
In the case of B2, in [5], the concentration for a half-maximal effect (EC50 (read off the curve)) is roughly 1 mg/L. For the same molecule, the binding result is “no binding (tested: 500 µg/mL)” in the assay with Mouse VEGFR2-Fc and “no binding (tested: 20 µg/mL)” in assay [6].
